Laboratory results as given in patent US8257758B2, “Process for the extraction, purification and enzymatic modification of soy 7S globulin alpha' subunit for use as hypocholesterolemizing agent” (Indena S.p.A., priority 2002, dated 2012).

How the values were obtained:
[1] = test system: rats fed with hypercholesterolemic diet; assay: Total cholesterol and triglycerids plasma levels in rats fed with hypercholesterolemic diet, 28 day oral treatment; type: in vivo, rat; settings: for Total cholesterol / Total triglycerids: plasma, male CD rats, hypercholesterolemic diet, oral 28 days, after 16 hour fasting
Experimental: Male rats CD SPF/VAF, weighing 75-100 g, were used. The animals were housed in makrolon cages (4-5 animals per cage) in environment with automatic control of light (12 hour light/12 hour darkness cycles), temperature (21±1° C.) and humidity (60±5%).
After 7 day housing, the animals were randomly divided into seven groups of 20 rats each (Table 2). During 28 days, one group was fed with normal diet (cod. 014RF25C; Mucedola S.r.l., Settimo Milanese, MI, Italy), whereas the others were fed with hypercholesterolemic diet consisting of 1% cholesterol, 0.5% cholic acid and 25% hydrogenated coconut oil (batch 332000, preparation Jan. 9, 2000; Laboratorio Dottori Piccioni, Gessate, MI, Italy), with access to water ad libitum. The diet was given daily (40 g, 09.00 a.m.) and the unconsumed amount was weighed. Treatment was carried out as follows.
Total cholesterol and triglycerids plasma levels were measured at the end of the 28 day treatment and after 16 hour fasting. […] After centrifugation for 15 min at 4° C. at 3000 rpm, plasma was recovered, frozen and stored at −20° C. until measurements.
Total cholesterol and triglycerids plasma concentrations (reported in Table 2) were determined according to conventional enzymatic assays.

LDL receptor = settings: hepatic cell line; Lovati et al. 1992, 1996; Manzoni et al. 1998; cited from earlier work

Molecule | Total cholesterol ([1]; dose 200 mg/kg) | Total triglycerids ([1]; dose 200 mg/kg) | LDL receptor activity (in words) (LDL receptor) | effect on cholesterol and total triglycerids plasma levels (in words) ([1]; administration to rats, table 2) | Total cholesterol ([1]; dose 10 mg/kg) | Total triglycerids ([1]; dose 10 mg/kg)
CCOC(=O)C(C)(C)Oc1ccc(Cl)cc1 [clofibrate, reference compound] | 191.2 ± 8.0 mg/dL | 139.1 ± 5.8 mg/dL | – | – | – | –
α' subunit: soy β-conglycinin α′ subunit purified by Metal Affinity Chromatography under denaturant conditions (protein, UniProt P11827 63-621, looked up) Beta-conglycinin alpha' …: VEEEEECEEGQIPRPRPQHPERERQQHGEKEEDEGEQPRPFPFPRPRQPHQEEEHEQKEEHEWHRKEEKHGGKGSEEEQDEREHPRPHQPHQKEEEKHEWQHKQEKHQGKESEEEEEDQDEDEEQDKESQESEGSESQREPRRHKNKNPFHFNSKRFQTLFKNQYGHVRVLQRFNKRSQQLQNLRDYRILEFNSKPNTLLLPHHADADYLIVILNGTAILTLVNNDDRDSYNLQSGDALRVPAGTTYYVVNPDNDENLRMITLAIPVNKPGRFESFFLSSTQAQQSYLQGFSKNILEASYDTKFEEINKVLFGREEGQQQGEERLQESVIVEISKKQIRELSKHAKSSSRKTISSEDKPFNLRSRDPIYSNKLGKLFEITPEKNPQLRDLDVFLSVVDMNEGALFLPHFNSKAIVVLVINEGEANIELVGIKEQQQRQQQEEQPLEVRKYRAELSEQDIFVIPAGYPVVVNATSDLNFFAFGINAENNQRNFLAGSKDNVISQIPSQVQELAFPGSAKDIENLIKSQSESYFVDAQPQQKEEGNKGRKGPLSSILRAFY | – | – | capable of activating LDL receptor | remarkably decreasing | 182.2 ± 12.1 mg/dL | 150.1 ± 9.8 mg/dL
